“Also recorded” adds a separate entry of the source.
How the values were obtained:
[1] = molecular target: T1, murine MDP (Mus musculus, UniProt P31428); assay: phage binding to COS-1 cells transfected with MDP
T1 construct: The amplified 1.3 kb murine MDP cDNA was digested with KpnI and XbaI, and inserted into the same sites of the pcDNA3 expression vector; expressed in transfected cells; host or cells: COS-1 cells, pcDNA3 expression vector
T1 sequence (P31428 17-384): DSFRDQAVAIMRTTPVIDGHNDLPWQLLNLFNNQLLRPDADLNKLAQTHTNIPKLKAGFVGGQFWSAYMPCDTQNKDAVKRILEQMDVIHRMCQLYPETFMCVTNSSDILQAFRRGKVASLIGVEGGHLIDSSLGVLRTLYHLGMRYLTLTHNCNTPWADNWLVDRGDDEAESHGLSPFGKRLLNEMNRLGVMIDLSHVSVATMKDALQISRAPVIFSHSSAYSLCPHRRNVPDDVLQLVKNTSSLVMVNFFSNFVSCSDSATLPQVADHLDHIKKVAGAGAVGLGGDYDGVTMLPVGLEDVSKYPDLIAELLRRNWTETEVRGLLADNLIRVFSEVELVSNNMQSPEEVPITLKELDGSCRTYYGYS
Protocol: The COS-1 cell line, which is known to have low or no detectable level of MDP activity, has been used extensively to study MDP structure and function (Keynan et al., supra, 1996; Keynan et al., Biochem, J. 326:47-51 (1997)). COS-1 cells were trasfected with murine MDP and used to assay binding to SEQ ID NOS: 1 and 2 as described below.
For transfection into COS-1 cells, a murine MDP expression vector was prepared as follows. Total mouse lung RNA was isolated using Qiagen RNA purification columns (Qiagen; Santa Clarita, Calif.) and used as a template for first strand cDNA synthesis with reverse transcriptase and a mixture of random hexamers and poly-dT oligonucleotides (GIBCO/BRL; Grand Island, N.Y.). Mouse MDP cDNA (Pasqualini et al., J. Cell Biol. 130:1189-1196 (1995)) was amplified from the cDNA pool by PCR using the oligonucleotide pair: […] (SEQ ID NO: 446), which contains a KpnI adaptor, and […] (SEQ ID NO: 447), which contains an XbaI adaptor, using Taq polymerase from GIBCO/BRL. The amplified 1.3 kb murine MDP cDNA was digested with KpnI and XbaI, and inserted into the same sites of the pcDNA3 expression vector (Invitrogen; Carlsbad, Calif.) using DNA restriction enzymes and T4 DNA ligase from New England Biolabs (Beverly, Mass.). Successful cloning of the murine MDP cDNA was confirmed by DNA sequencing. Transfection of the COS-1 cells was performed with the Superfect Reagent from Qiagen as recommended by the manufacturer.
(§1) Phage binding to COS-1 cells transfected with MDP was determined as follows. Briefly, 10^7 COS-1 cells were transfected with 10 μg of either the MDP expression vector or the vector alone. After 48 hours, cells were scraped gently from the dish, washed once, and subjected to the phage binding assay or membrane dipeptidase activity assay described above. For the phage binding assay, 5×10^6 cells and 10^10 transducing units (TU) of phage input were used. For measurement of membrane dipeptidase activity, 10^6 cells were lysed in 100 μl of PBS/octylglycoside without protease inhibitors. A 10 μl aliquot of the extract was used to measure MDP activity.

[2] = tested on: lung; assay: immunohistologic analysis of lung homing phage; type: in vivo, mice
Protocol: Phage displaying homing peptides were detected in lung, pancreas and skin by immunostaining histologic sections obtained 5 min after administration of phage expressing a lung, pancreas or skin homing peptide (“peptide-phage”) to a mouse. Following administration of the peptide-phage, mice were handled as described above and various organs, including lung, pancreas and skin, were removed and fixed in Bouin's solution (SIGMA). Histologic sections were prepared and reacted with anti-M13 (phage) antibodies (Pharmacia Biotech; see U.S. Pat. No. 5,622,699, supra, 1997; Pasqualini and Ruoslahti, supra, 1996). Visualization of the bound anti-M13 antibody was performed using a second antibody conjugated to peroxidase (SIGMA) according to the manufacturer's instructions.
Phage displaying the lung homing peptide, GFE-1 (SEQ ID NO: 1), were administered intravenously to mice and, after 5 minutes of circulation, the lung was isolated and processed as described above. […] However, staining of bronchiolar walls and some larger blood vessels was absent.

[3] = molecular target: T2, MDP (Mus musculus, UniProt P31428); assay: inhibition of MDP activity (hydrolysis of Gly-D-Phe, fluorimetric); type: biochemical, murine; settings: Gly-D-Phe 0.5 mM; extracts from MDP-expressing COS-1 cells; listed as GFE-1
T2 construct: The amplified 1.3 kb murine MDP cDNA was digested with KpnI and XbaI, and inserted into the same sites of the pcDNA3 expression vector; expressed in transfected cells; host or cells: COS-1 cells, pcDNA3 expression vector
T2 sequence (P31428 17-384): T1 sequence (P31428 17-384)
Protocol: […] […] Fluorescence was measured using an fmax fluorescence microplate reader from Molecular Devices (Sunnyvale, Calif.).
as §1
Fluorimetric detection of D-Phe was performed as described above.

CGFECVRQCPERC [lung homing peptide]
phage bound to MDP transfected cells than to mock transfected cells ([1]; 5×10^6 COS-1 cells, 10^10 TU phage): 4 fold
inhibition of binding of GFE-1 and GFE-2 phage to MDP-transfected cells ([1]; data not shown): completely inhibited
immunohistochemical staining of lung ([2]; 5 min after intravenous phage): staining of the alveolar capillaries was observed
staining of pancreas and skin after lung homing phage ([2]; control tissues): no staining was observed in pancreas and skin
inhibition of hydrolysis of Gly-D-Phe by MDP [3]: inhibits hydrolysis of the Gly-D-Phe substrate in a dose-dependent manner; also recorded: inhibited hydrolysis of the Gly-D-Phe substrate (0.5 mM) in a dose-dependent manner; also recorded: inhibition of MDP activity

— patent US6784153B1, “Methods of homing molecules to lung using membrane dipeptidase” (The Burnham Institute, priority 1998, dated 2004)
